Measurements from publication PMC4015550, “Immunopurification of adenomatous polyposis coli (APC) proteins” (BMC Research Notes, 2013).

Molecular target: the molecule itself
Test: not stated; data not shown; APC fragment of residues 1-61 said to form a dimer; no method or conditions told

B1: APC-NT antigen (APC residues 1–61 with an N-terminal FLAG-tag) (domain or fragment, human, UniProt P25054 1-61, looked up)
chain: MAAASYDQLLKQVEALKMENSNLRQELEDNSNHLTKLETEASNMKEVLKQLQGSIEDEAMA
notes: adenomatous polyposis coli (APC), human, amino acids 1-61, the N-terminal oligomerisation (coiled-coil) region; also called N-terminal fragment of APC (residues 1–61); source: E. coli (pET30a+), purified (anti-FLAG M2 Sepharose, MonoQ anion exchange, reversed-phase HPLC)
  stoichiometry N: 2
